Read-outs that look alike come from different tables or passages of the source.
B1: bacteriophage φ6 protein P1 (capsid shell), wild type (natural protein, UniProt P11126 1-769, looked up)
chain: MFNLKVKDLNGSARGLTQAFAIGELKNQLSVGALQLPLQFTRTFSASMTSELLWEVGKGNIDPVMYARLFFQYAQAGGALSVDELVNQFTEYHQSTACNPEIWRKLTAYITGSSNRAIKADAVGKVPPTAILEQLRTLAPSEHELFHHITTDFVCHVLSPLGFILPDAAYVYRVGRTATYPNFYALVDCVRASDLRRMLTALSSVDSKMLQATFKAKGALAPALISQHLANAATTAFERSRGNFDANAVVSSVLTILGRLWSPSTPKELDPSARLRNTNGIDQLRSNLALFIAYQDMVKQRGRAEVIFSDEELSSTIIPWFIEAMSEVSPFKLRPINETTSYIGQTSAIDHMGQPSHVVVYEDWQFAKEITAFTPVKLANNSNQRFLDVEPGISDRMSATLAPIGNTFAVSAFVKNRTAVYEAVSQRGTVNSNGAEMTLGFPSVVERDYALDRDPMVAIAALRTGIVDESLEARASNDLKRSMFNYYAAVMHYAVAHNPEVVVSEHQGVAAEQGSLYLVWNVRTELRIPVGYNAIEGGSIRTPEPLEAIAYNKPIQPSEVLQAKVLDLANHTTSIHIWPWHEASTEFAYEDAYSVTIRNKRYTAEVKEFELLGLGQRRERVRILKPTVAHAIIQMWYSWFVEDDRTLAAARRTSRDDAEKLAIDGRRMQNAVTLLRKIEMIGTTGIGASAVHLAQSRIVDQMAGRGLIDDSSDLHVGINRHRIRIWAGLAVLQMMGLLSRSEAEALTKVLGDSNALGMVVATTDIDPSL
B2: bacteriophage φ6 protein P1 with the E390A substitution (natural protein, UniProt P11126 1-769, looked up)
chain: MFNLKVKDLNGSARGLTQAFAIGELKNQLSVGALQLPLQFTRTFSASMTSELLWEVGKGNIDPVMYARLFFQYAQAGGALSVDELVNQFTEYHQSTACNPEIWRKLTAYITGSSNRAIKADAVGKVPPTAILEQLRTLAPSEHELFHHITTDFVCHVLSPLGFILPDAAYVYRVGRTATYPNFYALVDCVRASDLRRMLTALSSVDSKMLQATFKAKGALAPALISQHLANAATTAFERSRGNFDANAVVSSVLTILGRLWSPSTPKELDPSARLRNTNGIDQLRSNLALFIAYQDMVKQRGRAEVIFSDEELSSTIIPWFIEAMSEVSPFKLRPINETTSYIGQTSAIDHMGQPSHVVVYEDWQFAKEITAFTPVKLANNSNQRFLDVAPGISDRMSATLAPIGNTFAVSAFVKNRTAVYEAVSQRGTVNSNGAEMTLGFPSVVERDYALDRDPMVAIAALRTGIVDESLEARASNDLKRSMFNYYAAVMHYAVAHNPEVVVSEHQGVAAEQGSLYLVWNVRTELRIPVGYNAIEGGSIRTPEPLEAIAYNKPIQPSEVLQAKVLDLANHTTSIHIWPWHEASTEFAYEDAYSVTIRNKRYTAEVKEFELLGLGQRRERVRILKPTVAHAIIQMWYSWFVEDDRTLAAARRTSRDDAEKLAIDGRRMQNAVTLLRKIEMIGTTGIGASAVHLAQSRIVDQMAGRGLIDDSSDLHVGINRHRIRIWAGLAVLQMMGLLSRSEAEALTKVLGDSNALGMVVATTDIDPSL

Legend:
Test in all cases: cryo-EM structure
cryo-EM structure [1] = biological target: the molecule itself
cryo-EM structure [2] = biological target: the molecule itself; remark: listed apart in the source
[3] = biological target: B2
[4] = biological target: B1

Binder | binding result (cryo-EM structure [1]) | binding result (cryo-EM structure [2]) | binding result [3] | binding result [4]
B1 | binds | – | – | –
B2 | – | binds | – | –
bacteriophage φ6 protein P2 (RNA-dependent RNA polymerase) (enzyme, UniProt P11124 1-665, looked up) MPRRAPAFPLSDIKAQMLFANNIKAQQASKRSFKEGAIETYEGLLSVDPRFLSFKNELSRYLTDHFPANVDEYGRVYGNGVRTNFFGMRHMNGFPMIPATWPLASNLKKRADADLADGPVSERDNLLFRAAVRLMFSDLEPVPLKIRKGSSTCIPYFSNDMGTKIEIAERALEKAEEAGNLMLQGKFDDAYQLHQMGGAYYVVYRAQSTDAITLDPKTGKFVSKDRMVADFEYAVTGGEQGSLFAASKDASRLKEQYGIDVPDGFFCERRRTAMGGPFALNAPIMAVAQPVRNKIYSKYAYTFHHTTRLNKEEKVKEWSLCVATDVSDHDTFWPGWLRDLICDELLNMGYAPWWVKLFETSLKLPVYVGAPAPEQGHTLLGDPSNPDLEVGLSSGQGATDLMGTLLMSITYLVMQLDHTAPHLNSRIKDMPSACRFLDSYWQGHEEIRQISKSDDAILGWTKGRALVGGHRLFEMLKEGKVNPSPYMKISYEHGGAFLGDILLYDSRREPGSAIFVGNINSMLNNQFSPEYGVQSGVRDRSKRKRPFPGLAWASMKDTYGACPIYSDVLEAIERCWWNAFGESYRAYREDMLKRDTLELSRYVASMARQAGLAELTPIDLEVLADPNKLQYKWTEADVSANIHEVLMHGVSVEKTERFLRSVMPR | – | – | binds | –
bacteriophage φ6 protein P4 (packaging motor, packaging NTPase) (enzyme, UniProt P11125 1-332, looked up) MPIVVTQAHIDRVGIAADLLDASPVSLQVLGRPTAINTVVIKTYIAAVMELASKQGGSLAGVDIRPSVLLKDTAIFTKPKAKSADVESDVDVLDTGIYSVPGLARKPVTHRWPSEGIYSGVTALMGATGSGKSITLNEKLRPDVLIRWGEVAEAYDELDTAVHISTLDEMLIVCIGLGALGFNVAVDSVRPLLFRLKGAASAGGIVAVFYSLLTDISNLFTQYDCSVVMVVNPMVDAEKIEYVFGQVMASTVGAILCADGNVSRTMFRTNKGRIFNGAAPLAADTHMPSMDRPTSMKALDHTSIASVAPLERGSVDTDDRNSAPRRGANFSL | binds | – | binds | binds
